# Measured values: patent US20220119534A1 (DRAGONFLY THERAPEUTICS, published 2022)
# T1: recombinant human CLEC12A-His (human, UniProt Q5QGZ9 65-265)
# T1 construct: also called hCLEC12A-His; hCLEC12A
# T1 sequence: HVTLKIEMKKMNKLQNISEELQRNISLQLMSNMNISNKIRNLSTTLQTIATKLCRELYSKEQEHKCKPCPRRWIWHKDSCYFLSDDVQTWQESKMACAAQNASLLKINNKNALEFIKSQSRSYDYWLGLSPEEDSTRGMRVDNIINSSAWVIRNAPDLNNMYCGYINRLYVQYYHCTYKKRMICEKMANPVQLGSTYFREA
# T2: human CLEC12A expressed on cells (human, UniProt Q5QGZ9 1-265)
# T2 construct: Transduced isogenic cells or endogenous expression on AML cells; also called RMA-hCLEC12A; Ba/F3-hCLEC12A
# T2 sequence: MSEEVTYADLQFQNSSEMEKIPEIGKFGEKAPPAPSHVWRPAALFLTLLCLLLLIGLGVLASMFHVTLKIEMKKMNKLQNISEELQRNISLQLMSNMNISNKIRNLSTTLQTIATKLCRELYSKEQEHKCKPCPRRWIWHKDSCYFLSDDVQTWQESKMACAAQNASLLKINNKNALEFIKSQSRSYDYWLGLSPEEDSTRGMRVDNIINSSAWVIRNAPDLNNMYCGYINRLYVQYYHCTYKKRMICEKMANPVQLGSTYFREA
# T3: cynomolgus CLEC12A expressed on RMA cells (cynomolgus monkey, UniProt A0A2K5WXQ4 7-271)
# T3 construct: whole, on cells; also called cCLEC12A isogenic cell line
# T3 sequence: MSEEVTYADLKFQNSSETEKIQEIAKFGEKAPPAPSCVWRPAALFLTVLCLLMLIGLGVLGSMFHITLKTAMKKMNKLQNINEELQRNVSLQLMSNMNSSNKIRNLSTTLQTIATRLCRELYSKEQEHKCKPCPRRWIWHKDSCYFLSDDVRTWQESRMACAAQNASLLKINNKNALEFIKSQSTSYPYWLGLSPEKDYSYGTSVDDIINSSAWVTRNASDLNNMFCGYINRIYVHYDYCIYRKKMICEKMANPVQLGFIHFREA
# T4: de-glycosylated hCLEC12A (human, UniProt Q5QGZ9 65-265, N-linked glycans removed (PNGase F))
# T4 construct: also called PNGase-treated hCLEC12A; De-glycosylated CLEC12A
# T4 sequence: T1 sequence
# T5: de-sialylated hCLEC12A (human, UniProt Q5QGZ9 65-265, terminal sialic acids removed (neuraminidase))
# T5 construct: also called De-sialylated CLEC12A
# T5 sequence: T1 sequence
# T6: recombinant cynomolgus CLEC12A-His (cynomolgus monkey, UniProt A0A2K5WXQ4 71-271)
# T6 construct: also called cCLEC12A-His; cCLEC12A
# T6 sequence: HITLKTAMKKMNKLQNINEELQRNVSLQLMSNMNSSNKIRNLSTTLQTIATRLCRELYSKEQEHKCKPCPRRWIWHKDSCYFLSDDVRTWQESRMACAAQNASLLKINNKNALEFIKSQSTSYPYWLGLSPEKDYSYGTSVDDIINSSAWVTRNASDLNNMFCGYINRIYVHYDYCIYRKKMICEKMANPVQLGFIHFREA
# B1: 16B8.C8 (antibody, V domains shown)
# VH: EVQLQESGPGLVQPSQSLSITCTVSGFSLTNYGLHWVRQSPGKGLEWLGVIWSGGKTDYNTPFKSRLSISKDISKNQVFFKMNSLQPNDTAIYFCAKYDYDDSLDYWGQGTSVTVSS
# VL: DIQMNQSPSSLSASLGDTIAITCHASQNINFWLSWYQQKPGNIPKLLIYEASNLHTGVPSRFSGSGSGTRFTLTISSLQPEDIATYYCQQSHSYPLTFGQGTKLEIK
# notes: Murine mAb; also called 16B08; m16B8.C8
# B2: AB0089 TriNKET (other)
# chain: QLQLQESGPGLVKPSETLSLTCTVSGFSLTNYGLHWIRQPPGKCLEWIGVIWVGGATDYNPSLKSRVTISVDTSKNQFSLKLSSVQAADTAVYYCAKGDYGDTLDYWGQGTLVTVSSGGGGSGGGGSGGGGSGGGGSDIQMTQSPSSLSASVGDRVTITCHASQNINFWLSWYQQKPGKAPKLLIYEASNLHTGVPSRFSGSGSGTDFTLTISSLQPEDFATYYCQQSHSYPLTFGCGTKLEIKGSDKTHTCPPCPAPELLGGPSVFLFPPKPKDTLMISRTPEVTCVVVDVSHEDPEVKFNWYVDGVEVHNAKTKPREEQYNSTYRVVSVLTVLHQDWLNGKEYKCKVSNKALPAPIEKTISKAKGQPREPRVYTLPPCRDELTKNQVSLTCLVKGFYPSDIAVEWESNGQPENNYKTTPPVLVSDGSFTLYSKLTVDKSRWQQGNVFSCSVMHEALHNHYTQKSLSLSPG
# heavy: EVQLVESGGGLVKPGGSLRLSCAASGFTFSSYSMNWVRQAPGKGLEWVSSISSSSSYIYYADSVKGRFTISRDNAKNSLYLQMNSLRAEDTAVYYCARGAPIGAAAGWFDPWGQGTLVTVSSASTKGPSVFPLAPSSKSTSGGTAALGCLVKDYFPEPVTVSWNSGALTSGVHTFPAVLQSSGLYSLSSVVTVPSSSLGTQTYICNVNHKPSNTKVDKKVEPKSCDKTHTCPPCPAPELLGGPSVFLFPPKPKDTLMISRTPEVTCVVVDVSHEDPEVKFNWYVDGVEVHNAKTKPREEQYNSTYRVVSVLTVLHQDWLNGKEYKCKVSNKALPAPIEKTISKAKGQPREPQVCTLPPSRDELTENQVSLTCLVKGFYPSDIAVEWESNGQPENNYKTTPPVLDSDGSFFLYSWLTVDKSRWQQGNVFSCSVMHEALHNHYTQKSLSLSPG
# light: DIQMTQSPSSVSASVGDRVTITCRASQGISSWLAWYQQKPGKAPKLLIYAASSLQSGVPSRFSGSGSGTDFTLTISSLQPEDFATYYCQQGVSFPRTFGGGTKVEIKRTVAAPSVFIFPPSDEQLKSGTASVVCLLNNFYPREAKVQWKVDNALQSGNSQESVTEQDSKDSTYSLSSTLTLSKADYEKHKVYACEVTHQGLSSPVTKSFNRGEC
# B3: 9F11.B7 (antibody, V domains shown)
# VH: EVQLQESGGGLVQPGGSRKLSCAASGFTFNSFGMHWVRQAPEKGLEWVAFISSGSTSIYYANTVKGRFTISRDNPKNTLFLQMTSLRSEDTAMYYCARDGYPTGGAMDYWGQGTSVTVSS
# VL: DIKMTQSPSSMYASLGERVTITCKASQDIYNYLSWFQLKPGKSPRPLIYRANILVSGVPSKFSGSGSGQDYSLTINSLEYEDLGIYYCLQFDAFPFTFGSGTKLEIK
# notes: Murine mAb
# B4: 9E4.B7 (antibody, V domains shown)
# VH: EVQLQESGAELMKPGASVKISCRTTGYTFSTYWIEWVKQRPGRGPEWIGELFPGNSDTTLNEKFTGKATFTADSSSNTAYMQLSSLTSEDSAVYYCARSGYYGSSLDYWGQGTTLTVSS
# VL: GIVMTQSPASLSASVGETVTITCRAGENIHSYLAWYQQKQGKSPQLLVYNAKTLAEGVPSRFSGSGSGTQFSLKINSLQPEDFGSYYCQHHYGTPRTFGGGTKLEIK
# notes: Murine mAb; also called 9E04
# Key:
# [1] = molecular target: T1, recombinant human CLEC12A-His; assay: SPR, purified murine mAb
# [2] = molecular target: T1, recombinant human CLEC12A-His; assay: SPR screening, fully purified mAb
# [3] = molecular target: T2, human CLEC12A expressed on cells; assay: flow cytometry, PL21 cells
# Protocol: The ability of the eight purified subcloned mAbs to bind to CLEC12A expressing cells was assessed by FACS analysis with human CLEC12A-positive PL21 cancer cell line.
# [4] = molecular target: T1, recombinant human CLEC12A-His; assay: SPR, CLEC12A binding
# [5] = molecular target: T2, human CLEC12A expressed on cells; assay: flow cytometry (gMFI) on CLEC12A+ PL-21 AML cells
# [6] = molecular target: T3, cynomolgus CLEC12A expressed on RMA …; assay: flow cytometry, RMA-cCLEC12A, hybridoma supernatant
# Protocol: Briefly, RMA cells were transducted with a retroviral vector encoding cCLEC12A or hCLEC12A. […] 100,000 RMA, REH or SEM cells were added per well of a 96 well round bottom plate. Cells were spun down and the pellet was gently dissociated by vortexing. 100 μL of Zombie live/dead dye (PBS+1:2000 dye) were added per well and incubated in the dark at room temperature for 20 minutes. Cells were washed with 200 μL of FACS buffer (PBS+2% FBS). 50 μL of hybridoma supernatants were added to the washed cells and the mixtures were incubated for 30 minutes on ice in the dark. Cells were washed twice with FACS buffer and then 50 μL of anti-mouse Fc-PE secondary reagent (1:200 dilution) were added and incubated for 20 minutes on ice in the dark. After the incubation, the cells were washed and then fixed with 50 μL of 4% paraformaldehyde for 15 minutes on ice. The fixed cells were washed with FACS buffer, resuspended in 200 μL FACS buffer, and stored at 4° C. until ready for acquisition. The samples of cells resuspended in FACS buffer were run on BD FACSCelesta equipped with an HTS (high throughput sampler) to determine the binding affinities of the antibodies to isogenic RMA cells expressing CLEC12A and the U937 AML cancer cell line.
# [7] = molecular target: T4, de-glycosylated hCLEC12A; assay: SPR
# [8] = molecular target: T5, de-sialylated hCLEC12A; assay: SPR
# [9] = molecular target: T1, recombinant human CLEC12A-His; assay: SPR
# [10] = molecular target: T6, recombinant cynomolgus CLEC12A-His; assay: SPR, purified murine subclone mAb and Cyno CLEC12A-His
# [11] = molecular target: T2, human CLEC12A expressed on cells; assay: flow cytometry on PL-21 cells, fold over background
# Protocol: The cells were then incubated with a fluorophore conjugated anti-human IgG secondary antibody and were analyzed by flow cytometry. The mean fluorescence intensity (MFI) values were normalized to secondary antibody only controls to obtain fold over background (FOB) values.
# 100,000 cells were seeded per well into a 96-well plate for FACS staining. Cells were washed with PBS. Cells were incubated in a 1:2000 dilution of live/dead dye in PBS for 15 minutes, then washed with FACS buffer. TriNKETs or mAbs were diluted into FACS buffer, and 50 μl containing diluted TriNKET or mAb was added to cells. Cells were incubated on ice for 20 minutes. After the incubation, cells were washed with FACS buffer. Anti-human IgG-Fc secondary antibody was diluted into FACS buffer, and 50 μl was added per well for detection of the bound TriNKETs or mAbs. Cells were incubated for 20 minutes on ice, then washed with FACS buffer. 50 μl of fixation buffer was added to each well, and cells were incubated for 10 minutes at room temperature. […] Within the live gate, the mean fluorescence intensity (MFI) of each sample and the secondary-only control was calculated. Fold-over-background (FOB) was calculated as the ratio of test article MFI over secondary-only background MFI. […]
# [12] = molecular target: T2, human CLEC12A expressed on cells; assay: flow cytometry on CLEC12A+ PL-21 AML cells
# [13] = molecular target: T6, recombinant cynomolgus CLEC12A-His; assay: SPR 37C
# [14] = molecular target: T7, recombinant human CD16b (human, UniProt O75015 17-200, limits assumed, biotinylated); assay: SPR
# T7 construct: also called FcγRIIIb
# T7 sequence (O75015 17-200 limits assumed): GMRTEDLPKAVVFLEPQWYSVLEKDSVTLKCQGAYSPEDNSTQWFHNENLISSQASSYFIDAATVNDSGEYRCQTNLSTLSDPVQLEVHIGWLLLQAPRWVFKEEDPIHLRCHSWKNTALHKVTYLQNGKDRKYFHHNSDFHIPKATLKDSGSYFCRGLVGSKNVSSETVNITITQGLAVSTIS
# [15] = molecular target: T8, recombinant human CD16a V158 (human, UniProt P08637 17-208, biotinylated); assay: SPR
# T8 construct: also called FcγRIIIa V158; hCD16aV
# T8 sequence (P08637 17-208 F176V limits assumed): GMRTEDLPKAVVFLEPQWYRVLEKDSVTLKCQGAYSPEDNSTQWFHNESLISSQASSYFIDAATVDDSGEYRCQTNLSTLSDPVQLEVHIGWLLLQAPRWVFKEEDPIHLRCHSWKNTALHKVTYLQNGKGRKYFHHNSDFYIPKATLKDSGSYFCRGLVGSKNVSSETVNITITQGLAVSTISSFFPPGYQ
# [16] = molecular target: T1, recombinant human CLEC12A-His; assay: SPR, CLEC12A binding; remark: listed apart in the source
# [17] = molecular target: T2, human CLEC12A expressed on cells; assay: flow cytometry (MFI) on CLEC12A+ PL-21 AML cells, about 0.2 to 130 nM, plateau about 250 MFI; the molecule is assigned by panel order and legend paragraph 296
# [18] = molecular target: T1, recombinant human CLEC12A-His; assay: SPR; sensorgrams of a CLEC12A concentration series with fit overlays (response up to about 18, time axis 0 to about 900)
# [19] = molecular target: T6, recombinant cynomolgus CLEC12A-His; assay: SPR, purified murine subclone mAb and Cyno CLEC12A-His; remark: listed apart in the source
# [20] = molecular target: T6, recombinant cynomolgus CLEC12A-His; assay: as above; remark: listed apart in the source
binder,measurement,setting,value
B1,Kd,[1],0.01 nM
same,koff,[1],4.44e-05 s⁻¹
same,kon,[1],4.05e+06 M⁻¹ s⁻¹
same,Kd,[2],0.008 nM
same,koff,[2],2.35e-05 s⁻¹
same,kon,[2],3.03e+06 M⁻¹ s⁻¹
same,EC50,[3],0.18 nM
same,Max MFI,[3],300 MFI
same,Kd,[4],≤ 0.011 nM
same,EC50,[5],0.2 nM
same,binding result,[6],no binding
same,Kd,[7],0.011 nM
same,koff,[7],4.45e-05 s⁻¹
same,kon,[7],4.26e+06 M⁻¹ s⁻¹
same,Kd,[8],0.007 nM
same,koff,[8],3.62e-05 s⁻¹
same,kon,[8],5.25e+06 M⁻¹ s⁻¹
same,Kd,[9],0.012 nM
same,koff,[9],4.7e-05 s⁻¹
same,kon,[9],4.05e+06 M⁻¹ s⁻¹
same,binding result,[10],no binding
B2,EC50 (read off the curve),[11],~0.5 nM
same,EC50,[12],0.45 nM
same,binding result,[13],no binding (tested: 100 nM)
same,fold difference in affinity vs trastuzumab,[14],2.3 fold
same,fold difference in affinity vs trastuzumab,[15],3.8 fold
same,Kd,[16],0.8 nM
B3,Kd,[1],1.4 nM
same,koff,[1],0.00157 s⁻¹
same,kon,[1],1.14e+06 M⁻¹ s⁻¹
same,EC50,[3],0.56 nM
same,Max MFI,[3],217 MFI
same,EC50,[17],0.5 nM
same,Kd,[18],1.1 nM
same,binding result,[19],no binding
same,binding result,[6],no binding
B4,EC50,[3],0.64 nM
same,Max MFI,[3],186 MFI
same,binding result,[6],no binding
same,binding result,[20],no binding
